Literature values as cited in paper PMC4266928.

Target: insulin (Homo sapiens) (UniProt P01308)

## insulin (from UniProt P01308)
  Kd: 10 µM
